Laboratory results as given in IntAct's records for PubMed 16996049.

B1: Partitioning defective protein 6 (Caenorhabditis elegans), Q9NAN2 (parent)
chain: MSYNGSYHQNHHSTLQVKSKFDSEWRRFSIPMHSASGVSYDGFRSLVEKLHHLESVQFTLCYNSTGGDLLPITNDDNLRKSFESARPLLRLLIQRRGESWEEKYGYGTDSDKRWKGISSLMAQKPPKRSYSISNPEDFRQVSAIIDVDIVPEAHRRVRLCKHGQERPLGFYIRDGTSVRVTERGVVKVSGIFISRLVDGGLAESTGLLGVNDEVLEVNGIEVLGKTLDQVTDMMVANAHNLIITVKPANQRNTLSRGPSQQGTPNASEMSAATAAATGGIQRPMKMNGSSDGSYHPKQHDANDSDSGED

Variants of: B1
Settings: with cdc42_caeel cdc-42, Q05062
Chain of cdc42_caeel cdc-42, Q05062 (Q05062 whole entry): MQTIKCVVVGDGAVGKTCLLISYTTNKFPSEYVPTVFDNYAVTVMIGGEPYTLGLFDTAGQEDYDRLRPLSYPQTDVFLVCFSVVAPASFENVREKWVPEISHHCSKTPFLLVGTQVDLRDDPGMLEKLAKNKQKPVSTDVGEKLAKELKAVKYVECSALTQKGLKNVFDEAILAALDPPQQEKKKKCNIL

Variant	effect of a mutation on the interaction
P135A;D137A;F138A;R139A	disrupting interaction
V141A;S142A;I144A;I145A	disrupting interaction
